Results on four molecules are retold here after PMC8809517, “Cofactor-independent RNA editing by a synthetic S-type PPR protein”.

Test in all cases: high-throughput RNA pulldown from lysate on Ni-NTA beads; HRP: 50 mM Tris pH 8, 150 mM NaCl, 1 mM beta-mercaptoethanol, 50 ug/ml BSA, 3 ug/ml yeast RNA, 0.5% heparin; ITC and FP: Tris pH 8, 200 mM KCl, 5% glycerol; MST: 50 mM Tris pH 8, 200 mM NaCl, 1 mM DTT, BSA, heparin, 0.05% Tween 20
What all share (settings): tags: N-terminal His-eGFP

The target in series [1] is T1, GFP-9S library array, motif 4 ND N98Y;D124C (synthetic construct, N98Y;D124C).
T1 chain: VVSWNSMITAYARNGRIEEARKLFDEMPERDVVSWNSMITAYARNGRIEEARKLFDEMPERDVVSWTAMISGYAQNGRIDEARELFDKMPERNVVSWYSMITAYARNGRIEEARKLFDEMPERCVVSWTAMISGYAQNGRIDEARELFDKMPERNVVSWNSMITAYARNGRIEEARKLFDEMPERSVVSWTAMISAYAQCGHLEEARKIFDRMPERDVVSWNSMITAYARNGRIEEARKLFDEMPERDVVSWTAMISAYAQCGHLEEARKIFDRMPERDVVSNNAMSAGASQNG

Series [2] addresses T2, GFP-9S library array, motif 4 ND N98F;D124M (synthetic construct, N98F;D124M).
T2 chain: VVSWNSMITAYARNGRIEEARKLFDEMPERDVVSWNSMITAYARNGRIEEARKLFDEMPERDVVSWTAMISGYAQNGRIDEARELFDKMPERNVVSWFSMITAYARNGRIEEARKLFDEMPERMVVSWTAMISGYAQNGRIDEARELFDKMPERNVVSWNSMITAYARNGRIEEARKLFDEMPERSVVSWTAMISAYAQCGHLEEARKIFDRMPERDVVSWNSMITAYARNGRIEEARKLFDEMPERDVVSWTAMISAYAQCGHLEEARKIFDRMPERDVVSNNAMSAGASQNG

Series [3] has as its target T3, GFP-9S library array, motif 4 ND N98P;D124R (synthetic construct, N98P;D124R).
T3 chain: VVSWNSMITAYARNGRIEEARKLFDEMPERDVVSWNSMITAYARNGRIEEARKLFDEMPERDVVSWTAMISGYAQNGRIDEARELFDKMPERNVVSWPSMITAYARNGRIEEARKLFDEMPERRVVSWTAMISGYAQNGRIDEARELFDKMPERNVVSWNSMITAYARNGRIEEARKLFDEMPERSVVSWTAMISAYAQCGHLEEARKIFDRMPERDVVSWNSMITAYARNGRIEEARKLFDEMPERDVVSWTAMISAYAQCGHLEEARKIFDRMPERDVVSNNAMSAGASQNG

The target of series [4] is T4, GFP-9S library array, motif 4 ND N98S;D124I (synthetic construct, N98S;D124I).
T4 chain: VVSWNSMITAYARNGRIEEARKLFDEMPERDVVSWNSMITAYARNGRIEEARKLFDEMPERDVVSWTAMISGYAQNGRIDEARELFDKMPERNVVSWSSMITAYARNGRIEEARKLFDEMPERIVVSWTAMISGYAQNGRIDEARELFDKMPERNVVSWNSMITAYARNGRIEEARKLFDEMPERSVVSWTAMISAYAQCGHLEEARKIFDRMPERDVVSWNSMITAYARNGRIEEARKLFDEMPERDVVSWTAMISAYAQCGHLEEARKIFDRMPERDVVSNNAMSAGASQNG

Series [5] concerns the target T5, GFP-9S library array, motif 4 ND N98M;D124S (synthetic construct, N98M;D124S).
T5 chain: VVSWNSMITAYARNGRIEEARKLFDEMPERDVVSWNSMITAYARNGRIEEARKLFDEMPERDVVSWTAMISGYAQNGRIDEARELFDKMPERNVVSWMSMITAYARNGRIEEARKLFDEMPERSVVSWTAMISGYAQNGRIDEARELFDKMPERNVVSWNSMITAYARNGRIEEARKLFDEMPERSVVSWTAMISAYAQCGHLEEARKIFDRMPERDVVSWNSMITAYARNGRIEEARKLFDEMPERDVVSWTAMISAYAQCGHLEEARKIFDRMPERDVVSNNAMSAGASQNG

Turning to AUUAGACGUGA (ssRNA) [Cy5-rpoA-G], the Kd stood at 115 nM in series [1] (label: 5' Cy5); 69.1 nM in series [2] (label: 5' Cy5); 166 nM in series [3] (label: 5' Cy5); 71.4 nM in series [4] (label: 5' Cy5); 73.1 nM in series [5] (label: 5' Cy5).

As for AUUAUACGUGA (ssRNA) [IR-rpoA-U], the Kd in series [1] (label: 5' IRDye 800CW) worked out at 271 nM; in series [2] (label: 5' IRDye 800CW) it was 194 nM; in series [3] (label: 5' IRDye 800CW), 245 nM; in series [4] (label: 5' IRDye 800CW), 152 nM; in series [5] (label: 5' IRDye 800CW), 48.4 nM.

Regarding AUUACACGUGA (ssRNA) [Cy5-rpoA], the Kd in series [1] (label: 5' Cy5) was 126 nM; in series [2] (label: 5' Cy5) it was 76.7 nM; in series [3] (label: 5' Cy5), 151 nM; in series [4] (label: 5' Cy5) it was 74.7 nM; in series [5] (label: 5' Cy5) it was 50.4 nM.

As for AUUAAACGUGA (ssRNA) [IR-rpoA-A], the Kd amounted to 211 nM in series [1] (label: 5' IRDye 800CW); 230 nM in series [2] (label: 5' IRDye 800CW); 329 nM in series [3] (label: 5' IRDye 800CW); 113 nM in series [4] (label: 5' IRDye 800CW); 65.9 nM in series [5] (label: 5' IRDye 800CW).
